11 molecules from patent US20210115124A1 (Genentech, published 2021) can be followed below.

Broadly, the Kd is a measure of binding affinity in units of concentration. Read a low Kd as a tighter complex. The koff is a measure of how fast the partners let go of each other. Low readings indicate slow dissociation, high ones fast dissociation. The kon is the rate constant with which the complex forms.

For assay [1], the target named is T1, human VEGF (hVEGF) (human, UniProt P15692 181-395).
T1 construct: also called VEGF-A
T1 sequence: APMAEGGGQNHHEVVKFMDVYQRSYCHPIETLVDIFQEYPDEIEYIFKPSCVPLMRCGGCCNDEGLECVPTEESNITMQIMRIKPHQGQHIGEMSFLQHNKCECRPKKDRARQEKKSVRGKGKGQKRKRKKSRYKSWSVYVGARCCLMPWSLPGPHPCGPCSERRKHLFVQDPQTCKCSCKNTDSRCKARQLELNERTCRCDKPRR
Description: SPR single-cycle.
Description: (§1) To determine the binding affinity of selected Fab variants, SPR measurement with a BIACORE® T200 instrument was used. Briefly, series S sensor chip CM5 was activated with 1-ethyl-3-(3-dimethylaminopropyl) carbodiimide (EDC) and N-hydroxysuccinimide (NHS) reagents according to the supplier's instructions, and human VEGF (hVEGF) was coupled to achieve 50-80 response units (RU), then following by blocking un-reacted groups with 1M ethanolamine.
(§2) Three-fold serial dilutions of Fab in HBS-P buffer (0.01 M HEPES pH 7.4, 0.15 M NaCl, 0.005% surfactant P20) from low (0.02 nM) to high (50 nM) were injected (flow rate: 30 μl/min). The binding responses on hVEGF were corrected by subtracting of RU from a blank flow cell. The sensorgram was recorded and subject to reference and buffer subtraction before evaluating by BIACORE® T200 Evaluation Software (version 2.0). Association rates (kₒₙ) and dissociation rates (koff) were calculated using a simple one-to-one Langmuir binding model. The equilibrium dissociation constant (Kd) was calculated as the ratio koff/kₒₙ.

The target of assay [2] is T1, human VEGF (hVEGF). Description: SPR single-cycle. This is another data set of the same source.
Description: as §1, §2
Assay [3] addresses T1, human VEGF (hVEGF). As to the kind of experiment: BIACORE SPR on immobilised hVEGF; label beside the mutation on the structure of the VEGF-bound G6 Fab (PDB 2FJG). A general note: SPR reads the build-up and loss of mass on a sensor chip optically.
Assay [4] has as its target T1, human VEGF (hVEGF). As to the kind of experiment: SPR.
Description: as §1, §2
Assay [5] concerns the target T1, human VEGF (hVEGF). As to the kind of experiment: SPR. This is another data set of the same source.
Assay [6] addresses T1, human VEGF (hVEGF). Description: SPR. The source holds these as a separate data set.
Description: as §1, §2
Assay [7] addresses T1, human VEGF (hVEGF). Description: SPR. This is another data set of the same source.
Description: as §1, §2
The target in assay [8] is T1, human VEGF (hVEGF). Description: SPR multiple-cycle.
Description: as §1, §2
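Wherever Fold change (relative to G6.31) is given: fab variants injected over hVEGF immobilized on a CM5 chip (Biacore T200), threefold dilution series from 0.02 to 50 nM, kinetics fitted with a 1:1 Langmuir model.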

B1: G6.31 HC-A40E (Fab, name in Kabat numbering, V domains shown)
VH: EVQLVESGGGLVQPGGSLRLSCAASGFTISDYWIHWVRQEPGKGLEWVAGITPAGGYTYYADSVKGRFTISADTSKNTAYLQMNSLRAEDTAVYYCARFVFFLPYAMDYWGQGTLVTVSS
VL: DIQMTQSPSSLSASVGDRVTITCRASQDVSTAVAWYQQKPGKAPKLLIYSASFLYSGVPSRFSGSGSGTDFTLTISSLQPEDFATYYCQQGYGNPFTFGQGTKVEIK
notes: Fab
In the case of B1, in the assay with human VEGF (hVEGF) [1], the “Fold difference (relative to G6.31)” value was found to be 3.8 fold, the Kd is 410 pM, the koff worked out at 0.000466 s⁻¹ and the kon was 1.13e+06 M⁻¹ s⁻¹. In the assay with human VEGF (hVEGF) [2], the “Fold change (relative to G6.31)” value was 0.6 fold, binding was characterised by a dissociation constant (Kd) of 2630 pM, the koff turned out to be 0.000517 s⁻¹ and the kon came out at 197000 M⁻¹ s⁻¹. Moreover, the “fold change in binding affinity (Kd) compared to G6.31” value (“fold change in binding affinity (Kd)” for short) with human VEGF (hVEGF) [3] amounted to 4 x.

B2: R19HCLC4 (Fab, V domains shown)
VH: EEQLVEEGGGLVQPGESLRLSCAASGFEISDYWIHWVRQEPGEGLEWVAGITPAGGYEYYADSVEGRFTISADTSENTAYLQMNELRAEDTAVYYCARFVFFLPYAMDYWGQGELVTVSS
VL: DIQMTQSPSSLSASVGDEVTITCRASQDVSTAVAWYQQKPGKAPKLLIYSASFLYSGVPSRFSGSGSGTDFTLTISSLQPEDAATYYCQQGYGAPFTFGQGTKVEIK
notes: Fab
For the molecule B2, in the assay with human VEGF (hVEGF) [4], binding was characterised by a dissociation constant (Kd) of 169 pM, the koff was found to be 4.79e-05 s⁻¹ and the kon was determined as 284000 M⁻¹ s⁻¹. Further, in the assay with human VEGF (hVEGF) [5], the dissociation constant (Kd) was determined as 169 pM, the koff was found to be 4.79e-05 s⁻¹ and the kon is 284000 M⁻¹ s⁻¹.

B3: R19HCLC5 (Fab, V domains shown)
VH: EEQLVEEGGGLVQPGESLRLSCAASGFEISDYWIHWVRQEPGEGLEWVAGITPAGGYEYYADSVEGRFTISADTSENTAYLQMNELRAEDTAVYYCARFVFFLPYAMDYWGQGELVTVSS
VL: DIQMTQSPSSLSASVGDRVTITCRASQDVSTAVAWYQQKPGKAPKLLIYSASFLYSGVPSRFSGSGSGTDFTLTISSLQPEDAATYYCQQGYGAPFTFGQGTKVEIK
notes: Fab
In the assay with human VEGF (hVEGF) [4], B3 yielded a Kd of 62.4 pM, an off-rate (koff) of 4.41e-05 s⁻¹ and a kon of 707000 M⁻¹ s⁻¹. In the assay with human VEGF (hVEGF) [5], this molecule gave an equilibrium dissociation constant (Kd) of 62 pM, a koff of 4.41e-05 s⁻¹ and a kon of 707000 M⁻¹ s⁻¹.

B4: G6.31 HC-A53R (Fab, name in Kabat numbering, V domains shown)
VH: EVQLVESGGGLVQPGGSLRLSCAASGFTISDYWIHWVRQAPGKGLEWVAGITPRGGYTYYADSVKGRFTISADTSKNTAYLQMNSLRAEDTAVYYCARFVFFLPYAMDYWGQGTLVTVSS
VL: DIQMTQSPSSLSASVGDRVTITCRASQDVSTAVAWYQQKPGKAPKLLIYSASFLYSGVPSRFSGSGSGTDFTLTISSLQPEDFATYYCQQGYGNPFTFGQGTKVEIK
notes: Fab
With B4, in the assay with human VEGF (hVEGF) [1], the “Fold difference (relative to G6.31)” value came out at 3.7 fold, binding was characterised by a dissociation constant (Kd) of 420 pM, the off-rate (koff) is 0.00035 s⁻¹ and the kon is 829000 M⁻¹ s⁻¹. Also, the “fold change in binding affinity (Kd)” value with human VEGF (hVEGF) [3] was determined as 4 x.

B5: G6.31 HC-Q81S (Fab, name in Kabat numbering, V domains shown)
VH: EVQLVESGGGLVQPGGSLRLSCAASGFTISDYWIHWVRQAPGKGLEWVAGITPAGGYTYYADSVKGRFTISADTSKNTAYLSMNSLRAEDTAVYYCARFVFFLPYAMDYWGQGTLVTVSS
VL: DIQMTQSPSSLSASVGDRVTITCRASQDVSTAVAWYQQKPGKAPKLLIYSASFLYSGVPSRFSGSGSGTDFTLTISSLQPEDFATYYCQQGYGNPFTFGQGTKVEIK
notes: Fab
Regarding B5, in the assay with human VEGF (hVEGF) [1], the “Fold difference (relative to G6.31)” value turned out to be 3.4 fold, the equilibrium dissociation constant (Kd) came out at 450 pM, the koff was found to be 0.000487 s⁻¹ and the kon came to 1.07e+06 M⁻¹ s⁻¹. Further, the “fold change in binding affinity (Kd)” value with human VEGF (hVEGF) [3] turned out to be 3 x.

B6: G6.31 LC-F83A, LC-N94A, LC-T22D (Fab, name in Kabat numbering, V domains shown)
VH: EVQLVESGGGLVQPGGSLRLSCAASGFTISDYWIHWVRQAPGKGLEWVAGITPAGGYTYYADSVKGRFTISADTSKNTAYLQMNSLRAEDTAVYYCARFVFFLPYAMDYWGQGTLVTVSS
VL: DIQMTQSPSSLSASVGDRVTIDCRASQDVSTAVAWYQQKPGKAPKLLIYSASFLYSGVPSRFSGSGSGTDFTLTISSLQPEDAATYYCQQGYGAPFTFGQGTKVEIK
notes: Fab
Turning to B6, in the assay with human VEGF (hVEGF) [6], the affinity, expressed as Kd, was 558 pM; the koff was found to be 0.000744 s⁻¹; the kon stood at 1.33e+06 M⁻¹ s⁻¹.

B7: G6.31 Y58R.N94A.F83A (Fab, name in Kabat numbering, V domains shown)
VH: EVQLVESGGGLVQPGGSLRLSCAASGFTISDYWIHWVRQAPGKGLEWVAGITPAGGYTRYADSVKGRFTISADTSKNTAYLQMNSLRAEDTAVYYCARFVFFLPYAMDYWGQGTLVTVSS
VL: DIQMTQSPSSLSASVGDRVTITCRASQDVSTAVAWYQQKPGKAPKLLIYSASFLYSGVPSRFSGSGSGTDFTLTISSLQPEDAATYYCQQGYGAPFTFGQGTKVEIK
notes: Fab
As for B7, in the assay with human VEGF (hVEGF) [7], the “Fold improved (relative to WT)” value worked out at 3.9 fold, the Kd worked out at 135 pM, the koff is 0.000301 s⁻¹ and the kon came out at 2.22e+06 M⁻¹ s⁻¹.

B8: G6.31 HC-A40E, HC-T57E (Fab, V domains shown)
VH: EVQLVESGGGLVQPGGSLRLSCAASGFTISDYWIHWVRQEPGKGLEWVAGITPAGGYEYYADSVKGRFTISADTSKNTAYLQMNSLRAEDTAVYYCARFVFFLPYAMDYWGQGTLVTVSS
VL: DIQMTQSPSSLSASVGDRVTITCRASQDVSTAVAWYQQKPGKAPKLLIYSASFLYSGVPSRFSGSGSGTDFTLTISSLQPEDFATYYCQQGYGNPFTFGQGTKVEIK
notes: Fab
In the assay with human VEGF (hVEGF) [6], B8 gave a Kd of 272 pM, a koff of 0.000804 s⁻¹ and a kon of 2.96e+06 M⁻¹ s⁻¹.

B9: G6.31 LC-N94R (Fab, V domains shown)
VH: EVQLVESGGGLVQPGGSLRLSCAASGFTISDYWIHWVRQAPGKGLEWVAGITPAGGYTYYADSVKGRFTISADTSKNTAYLQMNSLRAEDTAVYYCARFVFFLPYAMDYWGQGTLVTVSS
VL: DIQMTQSPSSLSASVGDRVTITCRASQDVSTAVAWYQQKPGKAPKLLIYSASFLYSGVPSRFSGSGSGTDFTLTISSLQPEDFATYYCQQGYGRPFTFGQGTKVEIK
notes: Fab
Turning to B9, in the assay with human VEGF (hVEGF) [8], the affinity, expressed as Kd, was 2090 pM; the koff was 0.000407 s⁻¹; the on-rate (kon) was 194000 M⁻¹ s⁻¹.

B10: G6.31 HC-A40E, HC-T57E, LC-F83A, LC-N94A, LC-T22D (Fab, name in Kabat numbering, V domains shown)
VH: EVQLVESGGGLVQPGGSLRLSCAASGFTISDYWIHWVRQEPGKGLEWVAGITPAGGYEYYADSVKGRFTISADTSKNTAYLQMNSLRAEDTAVYYCARFVFFLPYAMDYWGQGTLVTVSS
VL: DIQMTQSPSSLSASVGDRVTIDCRASQDVSTAVAWYQQKPGKAPKLLIYSASFLYSGVPSRFSGSGSGTDFTLTISSLQPEDAATYYCQQGYGAPFTFGQGTKVEIK
notes: Fab
For B10, in the assay with human VEGF (hVEGF) [6], the affinity, expressed as Kd, was 597 pM; the koff was 0.000718 s⁻¹; the kon was 1.2e+06 M⁻¹ s⁻¹.

B11: G6.31 LC-N94Q (Fab, V domains shown)
VH: EVQLVESGGGLVQPGGSLRLSCAASGFTISDYWIHWVRQAPGKGLEWVAGITPAGGYTYYADSVKGRFTISADTSKNTAYLQMNSLRAEDTAVYYCARFVFFLPYAMDYWGQGTLVTVSS
VL: DIQMTQSPSSLSASVGDRVTITCRASQDVSTAVAWYQQKPGKAPKLLIYSASFLYSGVPSRFSGSGSGTDFTLTISSLQPEDFATYYCQQGYGQPFTFGQGTKVEIK
notes: Fab
On to B11, for which, in the assay with human VEGF (hVEGF) [1], the “Fold difference (relative to G6.31)” value stood at 0.3 fold, binding was put at a Kd of 4780 pM, the koff was determined as 0.00133 s⁻¹ and the kon is 278000 M⁻¹ s⁻¹. Further, in the assay with human VEGF (hVEGF) [8], binding was characterised by a dissociation constant (Kd) of 1140 pM, the koff worked out at 0.000362 s⁻¹ and the kon was 318000 M⁻¹ s⁻¹.
